According to US20220144960A1 (NANJING LEGEND BIOTECH, published 2022):
Changes are numbered by the printed parent chain. Where two headings read alike, the source gives them in different places.

T1: CD30 on CD30-expressing tumor cell lines (HH, MJ, H9) (UniProt P28908 19-595)
T1 sequence (looked up): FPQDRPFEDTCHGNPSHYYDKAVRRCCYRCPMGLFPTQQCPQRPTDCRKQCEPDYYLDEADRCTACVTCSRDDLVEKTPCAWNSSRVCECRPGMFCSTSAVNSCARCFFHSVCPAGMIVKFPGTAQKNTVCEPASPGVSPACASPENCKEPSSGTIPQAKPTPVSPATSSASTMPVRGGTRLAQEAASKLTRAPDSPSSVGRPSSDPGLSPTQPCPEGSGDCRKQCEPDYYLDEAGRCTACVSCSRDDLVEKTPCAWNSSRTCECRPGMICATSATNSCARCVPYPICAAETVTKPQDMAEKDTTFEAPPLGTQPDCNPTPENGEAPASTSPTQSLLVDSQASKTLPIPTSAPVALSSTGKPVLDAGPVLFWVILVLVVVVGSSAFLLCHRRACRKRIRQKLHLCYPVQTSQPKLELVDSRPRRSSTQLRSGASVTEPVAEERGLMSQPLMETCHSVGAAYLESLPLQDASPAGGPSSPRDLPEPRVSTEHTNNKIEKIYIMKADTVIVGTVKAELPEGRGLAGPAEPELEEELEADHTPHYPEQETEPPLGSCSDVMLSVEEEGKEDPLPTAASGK

T2: recombinant human CD30 extra cellular domain (ECD) protein (human, UniProt P28908 19-379)
T2 construct: Bought from R&D systems; also called rhCD30; human CD30 ECD
T2 sequence: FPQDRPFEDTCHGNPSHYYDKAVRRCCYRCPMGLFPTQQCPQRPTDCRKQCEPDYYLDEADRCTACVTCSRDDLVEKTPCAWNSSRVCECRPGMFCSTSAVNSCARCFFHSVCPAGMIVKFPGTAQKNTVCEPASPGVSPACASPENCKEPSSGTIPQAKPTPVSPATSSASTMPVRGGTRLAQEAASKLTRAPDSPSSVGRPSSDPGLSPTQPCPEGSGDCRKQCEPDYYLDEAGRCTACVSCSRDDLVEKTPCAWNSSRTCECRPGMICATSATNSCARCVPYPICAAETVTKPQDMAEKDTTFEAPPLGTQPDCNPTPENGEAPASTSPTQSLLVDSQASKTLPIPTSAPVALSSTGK

T3: rhesus CD30 ECD (rhesus, UniProt P28908 19-379 (human entry))
T3 construct: Produced in house; also called recombinant rhesus CD30; rhesus CD30 protein
T3 chain: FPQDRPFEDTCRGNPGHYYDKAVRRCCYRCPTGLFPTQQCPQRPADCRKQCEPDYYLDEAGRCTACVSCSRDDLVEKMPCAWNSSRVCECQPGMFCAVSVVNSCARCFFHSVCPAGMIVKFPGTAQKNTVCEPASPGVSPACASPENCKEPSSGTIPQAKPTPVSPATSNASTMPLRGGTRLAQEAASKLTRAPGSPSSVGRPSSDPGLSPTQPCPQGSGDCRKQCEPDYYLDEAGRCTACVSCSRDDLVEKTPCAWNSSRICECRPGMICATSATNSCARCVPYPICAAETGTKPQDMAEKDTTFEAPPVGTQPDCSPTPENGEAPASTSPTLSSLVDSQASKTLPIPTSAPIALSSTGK

B1: AS53574-AS48542bil-bbz CAR (other)
chain: QVKLVESGGGSVQAGGSLRLSCAASGYIYSSNCMGWFRQAPGKEREWVARIHTGSGSTYYADSVKGRFTISQDNAKNTVYLQMNSLRPEDTAMYDCAAGRVVLGAVVCTNEYWGQGTQVTVSSGGGGSGGGGSGGGGSQMQLVESGGGSVQAGETLRLSCTTSAFTFDGPDMAWYRQAPGNECVLVSIISADGRTYYADSVKGRFTISRDNAKNTVFLNLNSLQPEDTAVYYCALDPRKNCRGGYCCANWGPGTQVTVSSTTTPAPRPPTPAPTIASQPLSLRPEACRPAAGGAVHTRGLDFACDIYIWAPLAGTCGVLLLSLVITLYCKRGRKKLLYIFKQPFMRPVQTTQEEDGCSCRFPEEEEGGCELRVKFSRSADAPAYKQGQNQLYNELNLGRREEYDVLDKRRGRDPEMGGKPRRKNPQEGLYNELQKDKMAEAYSEIGMKGERRRGKGHDGLYQGLSTATKDTYDALHMQALPPR
B2: AS48542dis-bbz CAR (other)
chain: QMQLVESGGGSVQAGETLRLSCTTSAFTFDGPDMAWYRQAPGNECVLVSIISADGRTYYADSVKGRFTISRDNAKNTVFLNLNSLQPEDTAVYYCALDPRKNCRGGYCCANWGPGTQVTVSSGGGGSQMQLVESGGGSVQAGETLRLSCTTSAFTFDGPDMAWYRQAPGNECVLVSIISADGRTYYADSVKGRFTISRDNAKNTVFLNLNSLQPEDTAVYYCALDPRKNCRGGYCCANWGPGTQVTVSSTTTPAPRPPTPAPTIASQPLSLRPEACRPAAGGAVHTRGLDFACDIYIWAPLAGTCGVLLLSLVITLYCKRGRKKLLYIFKQPFMRPVQTTQEEDGCSCRFPEEEEGGCELRVKFSRSADAPAYKQGQNQLYNELNLGRREEYDVLDKRRGRDPEMGGKPRRKNPQEGLYNELQKDKMAEAYSEIGMKGERRRGKGHDGLYQGLSTATKDTYDALHMQALPPR
B3: AS48542dil-bbz CAR (other)
chain: QMQLVESGGGSVQAGETLRLSCTTSAFTFDGPDMAWYRQAPGNECVLVSIISADGRTYYADSVKGRFTISRDNAKNTVFLNLNSLQPEDTAVYYCALDPRKNCRGGYCCANWGPGTQVTVSSGGGGSGGGGSGGGGSQMQLVESGGGSVQAGETLRLSCTTSAFTFDGPDMAWYRQAPGNECVLVSIISADGRTYYADSVKGRFTISRDNAKNTVFLNLNSLQPEDTAVYYCALDPRKNCRGGYCCANWGPGTQVTVSSTTTPAPRPPTPAPTIASQPLSLRPEACRPAAGGAVHTRGLDFACDIYIWAPLAGTCGVLLLSLVITLYCKRGRKKLLYIFKQPFMRPVQTTQEEDGCSCRFPEEEEGGCELRVKFSRSADAPAYKQGQNQLYNELNLGRREEYDVLDKRRGRDPEMGGKPRRKNPQEGLYNELQKDKMAEAYSEIGMKGERRRGKGHDGLYQGLSTATKDTYDALHMQALPPR
B4: AS48542bbz CAR (other)
chain: QMQLVESGGGSVQAGETLRLSCTTSAFTFDGPDMAWYRQAPGNECVLVSIISADGRTYYADSVKGRFTISRDNAKNTVFLNLNSLQPEDTAVYYCALDPRKNCRGGYCCANWGPGTQVTVSSTTTPAPRPPTPAPTIASQPLSLRPEACRPAAGGAVHTRGLDFACDIYIWAPLAGTCGVLLLSLVITLYCKRGRKKLLYIFKQPFMRPVQTTQEEDGCSCRFPEEEEGGCELRVKFSRSADAPAYKQGQNQLYNELNLGRREEYDVLDKRRGRDPEMGGKPRRKNPQEGLYNELQKDKMAEAYSEIGMKGERRRGKGHDGLYQGLSTATKDTYDALHMQALPPR
B5: AS47863 sdAb (VHH)
VHH: QVQLEESGGGSVQAGETLRLSCTASGSTFGDSDMGWYRQAPGNACELVSIISSDGRTYYVDSVKGRFTISQDNAVSTVYLQMNSLKPEDTGVYYCAADLRQYCRDGRCCGYWGQGTQVTVSS
notes: Camel sdAb
B6: AS48433 sdAb (VHH)
VHH: B5 VHH with V2I, E5V, K86N, Q101L, Y102N
notes: Camel sdAb
B7: AS48463 sdAb (VHH)
VHH: QVHLMESGGGSVQAGETLRLSCTASGFTFANSDMGWYRQAPGNACELVSIISSHGGTTYYVDSVKGRFTISRHNAENTVYLRMTSLKPEDTALYYCVADPRSNCRGGYCCGYWGPGTQVTVSS
notes: Camel sdAb
B8: AS48508 sdAb (VHH)
VHH: EVQLVESGGGSVQAGGSLRLSCTASRFTFDGPDMAWYRQAPGNACELVSIISADGRTYYTDSVKGRFTISRDNAKNTVFLYLNSLQPEDTAVYYCAPDPRRNCRGGYCCGNWGPGTQVTVSS
notes: Camel sdAb
B9: AS53750 sdAb (VHH)
VHH: B8 VHH with S11L, A14P, R26G, F29D, Q39R, A44E, Y107D
notes: Camel sdAb
B10: AS48542 sdAb (VHH)
VHH: QMQLVESGGGSVQAGETLRLSCTTSAFTFDGPDMAWYRQAPGNECVLVSIISADGRTYYADSVKGRFTISRDNAKNTVFLNLNSLQPEDTAVYYCALDPRKNCRGGYCCANWGPGTQVTVSS
notes: Camel sdAb
B11: AS54233 sdAb (VHH)
VHH: QVQLVESGGGSVQAGETLRLSCTASGFTFDGPDMAWYRQAPGNECELVSIISADGRTYYTDSVKGRFTASQDNAKNTVSLYLKSLQPEDTAVYYCAADPRRNCRGNCCGNWGPGTQVTVSS
notes: Camel sdAb

Assays:
[1] = target: T1, CD30 on CD30-expressing tumor cell …; test: cell-based or functional assay
[2] = target: T1, CD30 on CD30-expressing tumor cell …; test: cell-based or functional assay; remark: listed apart in the source
[3] = target: T1, CD30 on CD30-expressing tumor cell …; test: cell-based or functional assay; remark: listed apart in the source
[4] = target: T2, recombinant human CD30 extra cellular …; test: SPR Biacore T200, His-tagged sdAb/Fab captured, 100.0 nM human CD30 as analyte, single curve
Experimental: Some of these unique binders were subjected to for further characterization by surface plasmon resonance (SPR) on a BIAcore T200 instrument (GE Healthcare). The experiment was carried out as follows. The crude sdAb/Fab proteins were captured through an affinity tag (6×Histidine tag) onto the sensorchip. High-concentration (100.0 nM) of human CD30 (R&D systems, Cat. #6126-CD) flowed over the sensorchip surface, and were allowed to bind the antibody fragments for 300 s followed by injection of the running buffer to allow dissociation of the complex. On-rate ([…] and off-rate (kd) were roughly calculated based on one association and dissociation curve, and were used to estimate the equilibrium dissociation constant (KD). 5F11 scFv (SEQ ID NO:216, prepared according to WO2017066122) was used as a positive control. Data were summarized in Table 3 below. The first 10 antibodies in Table 3 were sdAbs with amino acid sequence ID numbers summarized in Table 1, the last antibody was 5F11 scFv, and the remainings were human Fabs with CDR and scFv amino acid sequence ID numbers in Table 2.

[5] = target: T4, human CD30 CRD6 (E282-K379) Fc fusion protein with human IgG1 Fc fragment at the C terminus (human); test: ELISA on the CD30 fragment CRD6, absorbance OD 450 nm; sdAb concentration not given
T4 construct: also called CRD6 construct

rhesus CD30 ECD = target: T3, rhesus CD30 ECD; test: ELISA on rhesus CD30 ECD protein; member of the group by paragraph 437

T4 sequence (chain, as listed by the source limits assumed): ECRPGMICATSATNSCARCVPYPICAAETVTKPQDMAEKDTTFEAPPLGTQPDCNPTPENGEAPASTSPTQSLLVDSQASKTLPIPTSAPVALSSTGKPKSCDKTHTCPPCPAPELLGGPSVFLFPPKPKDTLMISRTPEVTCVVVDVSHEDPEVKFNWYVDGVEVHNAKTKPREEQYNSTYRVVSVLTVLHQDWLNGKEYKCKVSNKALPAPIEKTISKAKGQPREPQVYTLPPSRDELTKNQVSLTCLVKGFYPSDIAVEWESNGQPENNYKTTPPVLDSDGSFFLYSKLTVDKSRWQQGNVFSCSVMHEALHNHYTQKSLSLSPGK

Binder	% H9 cell lysis E:T = 5:1 (LDH assay, CAR T cells) [1] [%]	% MJ cell lysis E:T = 1:1 (LDH assay, CAR T cells) [1] [%]	% H9 cell lysis E:T = 2:1 (LDH assay, CAR T cells) [2] [%]	% MJ cell lysis E:T = 1:1 (LDH assay, CAR T cells) [2] [%]	% MJ cell lysis E:T = 0.5:1 (LDH assay, CAR T cells) [3] [%]	Kd [4] [nM]	koff [4] [s⁻¹]	kon [4] [M⁻¹ s⁻¹]	rhCD30 Binding (RU) [4] [RU]	binding result [5]	binding result (rhesus CD30 ECD)
B1	54	60.5									
B2	81	56.4									
B3	84	64.3									
B4	64	58.5	50	55	58.4						
B5						29	0.0042	140000	119	binds	binds
B6						25	0.0023	93000	83.5	binds	binds
B7						30	0.01	340000	106	binds	binds
B8						31	0.0061	200000	69.8	binds	binds
B9						130	0.0069	56000	284	binds	binds
B10						19	0.0024	120000	60.8	binds	binds
B11						76	0.0046	61000	59.2	binds	binds
